Target: human recombinant ICAM-1 (D1-D2-Fc), Alexa Fluor 555 conjugate (human) (UniProt P05362)
Assay: FRET or BRET; steady-state, in solution competition screening, 96-well plate; Alexa Fluor 488-LFA-1 (100 nM) mixed with peptide (0.02, 0.2, 2, 20 µM), then incubated with Alexa Fluor 555-D1-D2-Fc (100 nM) for 30 min in the dark; PBS pH 7.4, 1 mM EGTA, 2 mM Mg2+; inhibition efficiency from the FRET efficiency

Chain of human recombinant ICAM-1 (D1-D2-Fc), Alexa Fluor 555 conjugate (human) (P05362 28-532): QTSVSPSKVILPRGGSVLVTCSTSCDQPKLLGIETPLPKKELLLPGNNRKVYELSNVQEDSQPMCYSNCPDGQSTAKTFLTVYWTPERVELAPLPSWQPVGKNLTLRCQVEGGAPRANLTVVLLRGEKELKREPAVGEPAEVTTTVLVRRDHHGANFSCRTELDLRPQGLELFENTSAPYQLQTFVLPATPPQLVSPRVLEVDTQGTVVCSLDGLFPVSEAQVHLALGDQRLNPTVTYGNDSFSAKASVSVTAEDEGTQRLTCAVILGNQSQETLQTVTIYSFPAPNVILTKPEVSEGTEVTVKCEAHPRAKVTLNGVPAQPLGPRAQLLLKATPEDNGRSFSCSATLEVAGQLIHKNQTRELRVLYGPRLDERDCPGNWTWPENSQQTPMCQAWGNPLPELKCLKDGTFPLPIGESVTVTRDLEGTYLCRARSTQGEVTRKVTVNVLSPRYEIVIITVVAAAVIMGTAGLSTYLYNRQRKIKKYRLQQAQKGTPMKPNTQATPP

Binder	inhibition efficiency of the LFA-1/D1-D2-Fc interaction at 0.02 µM peptide [%]	inhibition efficiency of the LFA-1/D1-D2-Fc interaction at 0.2 µM peptide [%]	inhibition efficiency of the LFA-1/D1-D2-Fc interaction at 2 µM peptide [%]	inhibition efficiency of the LFA-1/D1-D2-Fc interaction at 20 µM peptide [%]
ITDGEATDSGNIDAAKDIIRYIIGI [CD11a(237–261) peptide]	40.8	47	53.2	65.1
APLFYGEQRG [CD11a(456–465) peptide]	12.2	20.3	36.5	51.4
